Measurements taken from PMC4357008.

Columns and labels:
[1] = confocal imaging, filopodia tip/shaft intensity ratio, COS-7; conditions: glycan lost; control: mEGFP-EAAT2 wild type
[2] = confocal imaging, filopodia shaft/cell body ratio, Lck-mCherry normalised; conditions: glycan lost; control: mEGFP-EAAT2 wild type

B1: EAAT2: EAAT2ΔG (protein)
parent chain: MASTEGANNMPKQVEVRMHDSHLSSDEPKHRNLGMRMCDKLGKNLLLSLTVFGVILGAVCGGLLRLASPIHPDVVMLIAFPGDILMRMLKMLILPLIISSLITGLSGLDAKASGRLGTRAMVYYMSTTIIAAVLGVILVLAIHPGNPKLKKQLGPGKKNDEVSSLDAFLDLIRNLFPENLVQACFQQIQTVTKKVLVAPPSEEANTTKAVISMLNETMNEAPEETKIVIKKGLEFKDGMNVLGLIGFFIAFGIAMGKMGEQAKLMVEFFNILNEIVMKLVIMIMWYSPLGIACLICGKIIAIKDLEVVARQLGMYMITVIVGLIIHGGIFLPLIYFVVTRKNPFSFFAGIFQAWITALGTASSAGTLPVTFRCLEDNLGIDKRVTRFVLPVGATINMDGTALYEAVAAIFIAQMNGVILDGGQIVTVSLTATLASIGAASIPSAGLVTMLLILTAVGLPTEDISLLVAVDWLLDRMRTSVNVVGDSFGAGIVYHLSKSELDTIDSQHRMQEDIEMTKTQSIYDDKNHRESNSNQCVYAAHNSVVIDECKVTLAANGKSADCSVEEEPWKREK
localisation_or_trafficking, other: tip/shaft density ratio [1]: increases, 2.8 vs 1.5
localisation_or_trafficking, other: shaft/cell body density ratio [2]: decreases, 1.7 vs 2.7
